Results published in patent US20180298070A1, “PEPTIDE COMPOUND” (Takeda Pharmaceutical Company Limited, published 2018).
Changes are numbered by the printed parent chain. Non-standard residues stand in square brackets, D forms with d. No end group written: not given here. Aib = CC(C)(N)C(=O)O

T1: human GIPR (human, UniProt P48546)
T1 sequence: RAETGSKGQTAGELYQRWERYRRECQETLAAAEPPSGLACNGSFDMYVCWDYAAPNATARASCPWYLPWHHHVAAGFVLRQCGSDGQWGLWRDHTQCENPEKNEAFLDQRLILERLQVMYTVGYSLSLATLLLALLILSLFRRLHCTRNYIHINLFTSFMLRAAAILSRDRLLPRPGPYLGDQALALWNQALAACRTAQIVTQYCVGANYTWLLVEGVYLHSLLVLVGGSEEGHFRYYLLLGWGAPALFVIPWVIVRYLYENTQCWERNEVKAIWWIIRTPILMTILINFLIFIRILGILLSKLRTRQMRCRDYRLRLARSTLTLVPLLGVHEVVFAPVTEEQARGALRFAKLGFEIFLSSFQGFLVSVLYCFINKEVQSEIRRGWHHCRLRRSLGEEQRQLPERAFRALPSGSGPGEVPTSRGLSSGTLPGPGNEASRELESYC

T2: human GIPR (human, UniProt P48546)
T2 sequence: T1 sequence

T3: human GIPR (human, UniProt P48546)
T3 sequence: T1 sequence

T4: human GIPR (human, UniProt P48546)
T4 sequence: T1 sequence

B1: Compound 496 (peptide)
peptide: YXEGTXISDYSIXLDRXAQXNFVNWXLAQRPSSGAPPPS
modifications: N-terminal methyl (Me-Tyr); Aib at 2, 13, 20; Iva at 6, 26; Lys(Oda-GGGGGG-) at 17; C-terminal NH2
B2: Compound 503 (peptide)
peptide: B1 peptide with A18H
modifications: N-terminal methyl (Me-Tyr); Aib at 2, 13, 20; Iva at 6, 26; Lys(Heda-GGGGGG-) at 17; C-terminal NH2
B3: Compound 521 (peptide)
peptide: B1 peptide with L14X, A18H
modifications: N-terminal methyl (Me-Tyr); Aib at 2, 13, 17, 20; Iva at 6, 26; Lys(Eda-GGGGGG-) at 14; C-terminal NH2
B4: Compound 484 (peptide)
peptide: B1 peptide with L14X, A18H
modifications: N-terminal methyl (Me-Tyr); Aib at 2, 13, 17, 20; Iva at 6, 26; Lys(Oda-GGGGGG-) at 14; C-terminal NH2
B5: Compound 307 (peptide)
peptide: B1 peptide
modifications: not fully specified; N-methyl on Tyr 1; Aib at 2, 13, 20; Iva at 6, 26; Lys(Eda-PEG(3)-PEG(3)-) at 17; C-terminal amide
B6: Compound 30 (peptide)
peptide: Y[Aib]EGTVVSLYSI[Aib]LDRQAQ[Aib]EFVRWLLRGGPSSGAPPPSR-NH2
modifications: N-terminus assumed
SMILES: CC[C@H](C)[C@H](NC(=O)[C@H](CO)NC(=O)[C@H](Cc1ccc(O)cc1)NC(=O)[C@H](CC(C)C)NC(=O)[C@H](CO)NC(=O)[C@@H](NC(=O)[C@@H](NC(=O)[C@@H](NC(=O)CNC(=O)[C@H](CCC(=O)O)NC(=O)C(C)(C)NC(=O)[C@@H](N)Cc1ccc(O)cc1)[C@@H](C)O)C(C)C)C(C)C)C(=O)NC(C)(C)C(=O)N[C@@H](CC(C)C)C(=O)N[C@@H](CC(=O)O)C(=O)N[C@@H](CCCNC(=N)N)C(=O)N[C@@H](CCC(N)=O)C(=O)N[C@@H](C)C(=O)N[C@@H](CCC(N)=O)C(=O)NC(C)(C)C(=O)N[C@@H](CCC(=O)O)C(=O)N[C@@H](Cc1ccccc1)C(=O)N[C@H](C(=O)N[C@@H](CCCNC(=N)N)C(=O)N[C@@H](Cc1c[nH]c2ccccc12)C(=O)N[C@@H](CC(C)C)C(=O)N[C@@H](CC(C)C)C(=O)N[C@@H](CCCNC(=N)N)C(=O)NCC(=O)NCC(=O)N1CCC[C@H]1C(=O)N[C@@H](CO)C(=O)N[C@@H](CO)C(=O)NCC(=O)N[C@@H](C)C(=O)N1CCC[C@H]1C(=O)N1CCC[C@H]1C(=O)N1CCC[C@H]1C(=O)N[C@@H](CO)C(=O)N[C@@H](CCCNC(=N)N)C(N)=O)C(C)C
B7: Compound 307 (peptide)
peptide: B1 peptide
modifications: not fully specified; MeTyr at 1; Aib at 2, 13, 20; Iva at 6, 26; Lys(Eda-PEG(3)-PEG(3)-) at 17; C-terminal amide (-NH2)

The binders below were run against T1, human GIPR (assay: [125I]GIP competition, human GIPR VLP).
Experimental: (§1) For the measurement of the binding activity to GIPR, [¹²⁵I]GIP (PerkinElmer, Inc.) in a final concentration of 100 pM and a test compound in a specified concentration were mixed to GIPR_VLP in an assay buffer (50 mM HEPES (pH 7.4, WAKO 342-01375), 5 mM EGTA (WAKO 346-01312), 5 mM MgCl₂ (WAKO 136-03995), 0.1% BSA (Merckmillipore 81-066-04) and 0.005% Tween 20 (BioRad 170-6531)) and reacted at room temperature for 2 hours. VLP to which [¹²⁵I ]GIP was bound was trapped in a GF/C glass fiber filter 96-well plate (PerkinElmer 6005274) using a cell harvester and washed with an assay buffer. The GF/C glass fiber filter 96-well plate in which VLP was trapped was dried at 42° C. overnight. Thereafter, MicroScint-O (PerkinElmer 6013611) was added to the GF/C glass fiber filter 96-well plate sealed using a backseal and the plate was sealed using a topseal. The radioactivity of each well was eventually measured using Topcount (PerkinElmer) and the binding activity of the test compound to GIPR was calculated when the [¹²⁵I]GIP binding activity in the presence of GIP in a final concentration of […] was 100% and the [¹²⁵I]GIP binding activity of the wells to which DMSO was added was 0%.

| Binder | IC50 [nM] |
| --- | --- |
| B1 | 10 |
| B2 | 8 |
| B3 | 20 |
| B4 | 10 |

The binders below were run against T2, human GIPR (assay: [125I]GIP displacement, hGIPR VLP).
Experimental: as §1

| Binder | IC50 [nM] |
| --- | --- |
| YAEGTVVSLYSIALDKQHQQEFVKWLLKGGPSSGAPPPSK [Compound 24, listing 1 of 2 here] | 370 |
| YAEGTVVSLYSIALDKIHQQEFVKWLLKGGPSSGAPPPSK [Compound 25, listing 1 of 2 here] | 520 |
| YAEGTVVSLYSIALYKIHQQEFVKWLLKGGPSSGAPPPSK [Compound 26, listing 1 of 2 here] | 420 |
| B5 | 5 |

Each binder was assayed against human GLP-1R (human, UniProt P43220) (assay: cell-based or functional assay).

| Binder | Agonist activity (EC50, M) [M] |
| --- | --- |
| YAEGTVVSLYSIALYKIHQQEFVKWLLKGGPSSGAPPPSK [Compound 26, listing 2 of 2 here] | > 1e-06 |
| YAEGTVVSLYSIALDKIHQQEFVKWLLKGGPSSGAPPPSK [Compound 25, listing 2 of 2 here] | > 1e-06 |
| YAEGTVVSLYSIALDKQHQQEFVKWLLKGGPSSGAPPPSK [Compound 24, listing 2 of 2 here] | > 1e-06 |
| B6 | > 1e-06 |

What follows are binders tested against T3, human GIPR (assay: cell-based or functional assay).

| Binder | Agonist activity (EC50, M) [M] |
| --- | --- |
| B7 | 4e-11 |

Target: human GLP-1R (human, UniProt P43220)
Assay: cell-based or functional assay
Remark: another data set of the same source

| Binder | Agonist activity (EC50, M) [M] |
| --- | --- |
| B7 | > 1e-06 |

These binders were tested against T4, human GIPR (assay: cell-based or functional assay).

| Binder | Agonist activity (EC50, M) [M] |
| --- | --- |
| YAEGTVVSLYSIALYKIHQQEFVKWLLKGGPSSGAPPPSK [Compound 26, listing 2 of 2 here] | 1.2e-08 |
| YAEGTVVSLYSIALDKIHQQEFVKWLLKGGPSSGAPPPSK [Compound 25, listing 2 of 2 here] | 1.4e-09 |
| YAEGTVVSLYSIALDKQHQQEFVKWLLKGGPSSGAPPPSK [Compound 24, listing 2 of 2 here] | 5.1e-09 |
| B6 | 1e-11 |
